31 sequences from the supplement of paper PMC9170038 can be followed below.

The series concerns MS2 coat protein. Kind of series: apparent KD of MS2 coat protein; designed switch direction (-1 OFF switch, 1 ON switch): -1; higher = weaker reporter binding. Summed up: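 On Illumina chips, designed RNA switches with common flanks were made by stalled E. coli RNA polymerase. Titrations with SNAP-549-labelled MS2 coat protein, doubling from 0.7 or 1.5 nM to 3 µM, were done with no input, with 200 uM small-molecule ligand, or with an oligonucleotide input. Apparent KD is the median per design over clusters, from curve fits of normalised cluster fluorescence.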

Setting [1] is: input ligand: microRNA oligo, concentration not stated.
Where [2] appears, read: Eterna round: R95, input ligand: FMN 200 uM.
Where [3] appears, read: Eterna round: R95, input ligand: microRNA oligo, concentration not stated.
Where [4] appears, read: Eterna round: R95, input ligand: none.

Take “ACUUACUGAGGAUAUACAUAGAUUUACAUGAGGAUCACCCAUGUUCCUCUAAGUAUAUAUGUAGAAGGCAGAAGGU [Mat - Exclusion 5 - JL Mod - D42] (Eterna round: R97, puzzle: Exclusion 5)”: the “apparent KD of MS2 coat protein” value is, setting by setting: (input ligand: FMN 200 uM) 177 nM; (input ligand: none) 214 nM.
“GGAAGAAAGCGAGGAUAUCGAUAAGAAGAAGAAGAUAAGGUGACAUGAGGAUCACCCAUGUAAUACGAGAAGGCGCGACCUGCG [i'd better go back to my homework] (Eterna round: R96, puzzle: Exclusion NG 2)”: the “apparent KD of MS2 coat protein” value is, setting by setting: (input ligand: FMN 200 uM) 215 nM; under setting [1], 147 nM; (input ligand: none) 197 nM.
On the same counts, the results for “UAAAAUUCGCGAGGAUAUGCGACCUAAUGGGAGGAUUGUCACAUGAGGAUCACCCAUGUCAGUCAGCAGAAGGCGCACCUGGUU [Anedmaon] (Eterna round: R96, puzzle: Exclusion NG 2)” are 628 nM, 116 nM and 99.6 nM.
Turning to “UUGCCGCAAGGAUAUGCAGACAAGUACAAUACGUGUCUCGGACUUGAGGAUCACCCAAGUAGAAGGCUUUUUAU [LRO-Excl2-14-mod _r4_621 by salish99] (Eterna round: R97, puzzle: Exclusion 2)”, the “apparent KD of MS2 coat protein” value runs as follows: (input ligand: FMN 200 uM) 23.7 nM; (input ligand: none) 21.4 nM.
For “CGGUAGUGCUCAGGAUAUACAUGAGGAUCACCCAUGUAACUAGAAUCGGUCGUCCGAUCAGUGGUGUAGAAGGGAGGCUGGCUG [random 1, A 25%] (Eterna round: R96, puzzle: Exclusion NG 2)”, the “apparent KD of MS2 coat protein” value was determined as 32.1 nM (input ligand: FMN 200 uM), 22 nM under setting [1] and 31.5 nM (input ligand: none).
Turning to “AAAAGAAGUGUUAGGAUAUGUGGAAGUAGAAAGACACAGAAGGGACAUGAGGAUCACCCAUGUGGCCAAAGAAC [Vecedies] (puzzle: Brourd's mod of Exclusion 4)”, the “apparent KD of MS2 coat protein” value reads like this: under setting [2], 17.3 nM; under setting [3], 15.6 nM; under setting [4], 15.5 nM.
As to “AUGGUGUCAGGAUAUCUCAAAGCACAGAAUGAGCGGCUACGGGAGAAGGGACAUGAGGAUCACCCAUGUACUCU [EX4 B.29] (Eterna round: R97, puzzle: Exclusion 4)”, the “apparent KD of MS2 coat protein” value came out at 19.9 nM (input ligand: FMN 200 uM) and 18.6 nM (input ligand: none).
Take “UUAUACGCUGAGGAUAUUAUCACUGAGAGGUGAUGAGAAGGCGGUACAUGAGGAUCACCCAUGUCUAUGGGCAG [Ex-6 Malc#22] (puzzle: Exclusion 6)”: the “apparent KD of MS2 coat protein” value under setting [3] stood at 237 nM.
“UUAUAAACAUAGGAUAUCGAAUAAAUUAUUUAACGAGAAGGAUGAACAUGAGGAUCACCCAUGUGGUAUCAUGG [Mat - Exclusion 6 - JL Mod - D30] (puzzle: Exclusion 6)”: the “apparent KD of MS2 coat protein” value is, setting by setting: under setting [2], 170 nM; under setting [3], 228 nM; under setting [4], 398 nM.
On the same counts, the results for “UAAAGCUUUGAGAUCCUUAACAUGAGGAUCACCCAUGUUCGUCUUAUGAUGGUCUGAUCCCUGAGGAUCGGACCGUU [Mat - Sensor v3 - turn-off var 1 - JL Mod - D5] (puzzle: Sensor v3, turn-off variant 1)” are 269 nM, 26.6 nM and 252 nM.
With “GUGUAGUCAGGAUAUACAUAGGAAGAGAAGAGAAGAGAAGCACAUGAGGAUCACCCAUGUAGAAGGGACAGUGU [Excluse me!! 4 - Jieux - Exclusion 2] (Eterna round: R96, puzzle: Exclusion 2)”, the “apparent KD of MS2 coat protein” value under setting [1] is 40.1 nM.
As for “UGAUCUUUUGUUAGGAUAUGCUGGCUGAAAAGUCAGCAGAAGGGACAUGAGGAUCACCCAUGUUCUCUCUUUUU [Magic-09] (puzzle: Brourd's mod of Exclusion 4)”, the “apparent KD of MS2 coat protein” value under setting [3] turned out to be 10.3 nM.
With “AAGUCGAGCGUGAGGAUAUCGUCCGAACGACCGAACGAGAAGGCACAUGAGGAUCACCCAUGUGAUUCAGCUCA [Brourd's EX4 #48] (Eterna round: R97, puzzle: Brourd's mod of Exclusion 4)”, the “apparent KD of MS2 coat protein” value runs as follows: (input ligand: FMN 200 uM) 16.8 nM; (input ligand: none) 14.2 nM.
With “AAACUAGUAGAGGAUAUUCCAGGCAGUGUUUGAGAAGAAGGCUACACAUGAGGAUCACCCAUGUGGCCUGGUGG [Riedbi] (puzzle: Exclusion 6)”, the “apparent KD of MS2 coat protein” value under setting [3] was 12.8 nM.
Take “UGUUGUCGCGCAGGAUAUGAGGAUCACCCAUAUACAGGAUAUGAAAAGAAGGGUCUGAGGAUCACCCAGAAGGGCGGGACAACU [pwkr exNG2 2xF5 2xFMN.27] (Eterna round: R96, puzzle: Exclusion NG 2)”: the “apparent KD of MS2 coat protein” value by setting is: (input ligand: FMN 200 uM) 1340 nM; under setting [1], 99.9 nM; (input ligand: none) 135 nM.
As to “GGUUGGCGAGGAUAUACAUGAGGAUCACCCAUGUGAGAGAGAAAAGUGAGAACGAAAAGUAGAAGGCGCUGACG [salish99_ex3_r3_061] (puzzle: Exclusion 3)”, the “apparent KD of MS2 coat protein” value is, setting by setting: under setting [2], 53.5 nM; under setting [3], 65.6 nM; under setting [4], 96.2 nM.
On to “CUAAAUCAUGUAGGAUAUGCAUAGCGAAGCUAUGCAGAAGGACAUGAGGAUCACCCAUGUUCUUCCGUCUGCGUACAGACGGAA [Mat - Exclusion NG 1 - Mod of JL - D30] (Eterna round: R96, puzzle: Exclusion NG 1)”, for which the “apparent KD of MS2 coat protein” value (input ligand: FMN 200 uM) came out at 268 nM, the “apparent KD of MS2 coat protein” value under setting [1] was 32.4 nM and the “apparent KD of MS2 coat protein” value (input ligand: none) came to 33.5 nM.
Regarding “UCAUGCUAAGGAUAUGACGUCGGCUACAUGAGGAUCACCCAUGUGGGUUCGUUAUGGCCAUUAGAAGGUAGCGAUU [Eternabot (L2) Solution 95] (Eterna round: R97, puzzle: Exclusion 5)”, the “apparent KD of MS2 coat protein” value (input ligand: FMN 200 uM) stood at 17.8 nM.
With “GAGCUGUGAGGAUAUACAUGAGGAUCACCCAUGUAAUGGUAGUCGGGAUUAAUUUGGUGUAGAAGGCGCUUAUU [JR_Ex3_Sub020] (Eterna round: R97, puzzle: Exclusion 3)”, the “apparent KD of MS2 coat protein” value is, setting by setting: (input ligand: FMN 200 uM) 41 nM; (input ligand: none) 46 nM.
Consider “UAUUAUAAUGUAGGAUAUCUGCACGUUUAGUGCAGAGAAGGACAUGAGGAUCACCCAUGUAUAGUAGCUUCGGCUACAUUAUUU [ENG1-B2] (Eterna round: R96, puzzle: Exclusion NG 1)”, for which the “apparent KD of MS2 coat protein” value (input ligand: FMN 200 uM) was determined as 103 nM, the “apparent KD of MS2 coat protein” value under setting [1] was found to be 52.2 nM and the “apparent KD of MS2 coat protein” value (input ligand: none) worked out at 68.9 nM.
“UCUCGCGGGCAAGGAUAUCCUACGUUGUUCUGGCCCGUGCAUGUUACAUGAGGAUCACCCAUGUGGGAGAAGGUGCACCAGGGC [Design 38] (Eterna round: R96, puzzle: Exclusion NG 2)”: the “apparent KD of MS2 coat protein” value reads like this: (input ligand: FMN 200 uM) 56.9 nM; under setting [1], 30.3 nM; (input ligand: none) 52.5 nM.
On the same counts, the results for “ACAAGCUAAGUGCUCGGUCCGGGAGACACGUGAUCAGCGACAUGAGGAUCACCCAUGUAAUAGGAGCUUAAAACGUU [solution 46] (Eterna round: R96, puzzle: Sensor v2, turn-off variant 2)” are 15 nM, 20.1 nM and 19.7 nM.
As for “CCUCAGUGAGGAUAUCAGUAAUGUAAGACGUACAGUCGCACUGAGAAGGUACAUGAGGAUCACCCAUGUUAGUU [Eternabot (L1) Solution 50] (Eterna round: R97, puzzle: Exclusion 4)”, the “apparent KD of MS2 coat protein” value was determined as 31.3 nM (input ligand: FMN 200 uM) and 23 nM (input ligand: none).
Regarding “UAUCCACAUGAGGAUCACCCAUGUGAGGAUAUGAUACUAUGUACUUCGGUACAUAGUAUCAGAAGGCACAGGUC [Ex1-3: 57] (puzzle: Exclusion 1)”, the “apparent KD of MS2 coat protein” value under setting [3] is 20.3 nM.
For the sequence “AGCGUGGCUCAGGAUAUCAGCCCUGUGGAGUUCUGAGAAGGGAGCACAUGAGGAUCACCCAUGUGAAAGGGUAC [Useratarin] (puzzle: Exclusion 6)”, the “apparent KD of MS2 coat protein” value reads like this: under setting [2], 103 nM; under setting [3], 24.7 nM; under setting [4], 29.7 nM.
On the same counts, the results for “AUUUAGAGAGGAUAUAUAAAGUGAAACAUGAGGAUCACCCAUGUAAUUUUAUGGAUGUAAAUAGAAGGCUCAUUUA [Mat - Exclusion 5 - JL mod - D1] (puzzle: Exclusion 5)” are 23.7 nM, 28.9 nM and 30.1 nM.
On to “GGCACACAUGAGGAUCACCCAUGUCAGGAUAUGUGGCGAUCGUCGAAAGACGAUAGCCACAGAAGGGACAGGCC [Eli x1 4.25] (Eterna round: R97, puzzle: Exclusion 1)”, for which the “apparent KD of MS2 coat protein” value by setting is: (input ligand: FMN 200 uM) 68.7 nM; (input ligand: none) 49.8 nM.
On the same counts, the results for “UAUACCCGAGGAUAUACAUGAGGAUCACCCAUGUAGUGAAAGCUCUAAGAGCGCUCAGGUAGAAGGCGGAUUAA [EX3 A.9] (Eterna round: R97, puzzle: Exclusion 3)” are 24.9 nM and 18.8 nM.
Take “GCGCACUAAGUGAGGAUAUCGAUUUUUUUUAGGAUCGAGAAGGCACAUGAGGAUCACCCAUGUUUGACGUGCGC [JR_BMOE4_Sub098] (puzzle: Brourd's mod of Exclusion 4)”: the “apparent KD of MS2 coat protein” value under setting [3] was found to be 15 nM.
Same read-out and setting: the result for “UCGGCGCGAGGAUAUGCGGUUGCUUGGUAGGGUCGGAGCGUACAUGAGGAUCACCCAUGUAGAAGGCGCGCCGC [Apr-15 SS2-33] (puzzle: Exclusion 2)” reads 15.5 nM.
In the case of “AAGUGGAAAACACAAUUGUACAUGAGGAUCACCCAUGUAUGUACGAAAUAUAGACAAGCUGUAUGCUCGACAACACA [Sensor v2 M17] (Eterna round: R96, puzzle: Sensor v2, turn-off variant)”, the “apparent KD of MS2 coat protein” value is, setting by setting: (input ligand: FMN 200 uM) 36.3 nM; under setting [1], 18.3 nM; (input ligand: none) 37 nM.
